Results on one substance are retold here after patent publication US20240002820A1.

The assay deals with Uracil DNA glycosylase (UNG), endogenous in HuH-7 and U-2OS cells (UniProt P13051). The assay can be described thus: cell-based or functional assay.
UniProt P13051, sequence (P13051 whole entry): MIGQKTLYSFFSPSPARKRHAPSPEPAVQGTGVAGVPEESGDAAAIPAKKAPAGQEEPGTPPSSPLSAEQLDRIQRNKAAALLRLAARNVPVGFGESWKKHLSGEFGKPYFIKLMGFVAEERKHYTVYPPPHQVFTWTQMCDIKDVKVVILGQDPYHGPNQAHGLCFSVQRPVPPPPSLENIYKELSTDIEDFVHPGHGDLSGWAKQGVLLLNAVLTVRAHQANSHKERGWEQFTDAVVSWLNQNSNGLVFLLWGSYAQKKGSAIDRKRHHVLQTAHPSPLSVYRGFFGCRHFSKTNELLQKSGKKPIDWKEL

As for “Uracil Glycosylase Inhibitor (UGI), overexpressed from plasmid pCDNA3.1-UGI (from UniProt P14739 1-84)”, the Fold change relative to GFP in % of edited reads, C-to-A/G or indel, HuH-7 cells, BC22 + UGI overexpression (fold change relative to GFP) was -4.53; the Fold change relative to GFP in % of edited reads, C-to-A/G or indel, HuH-7 cells, BC22 + UGI overexpression + siRNA against UNG (fold change relative to GFP) is -4.76; the Fold change relative to GFP in % of edited reads, C-to-A/G or indel, HuH-7 cells, BC27 + UGI overexpression (fold change relative to GFP) is -9.3; the Fold change relative to GFP in % of edited reads, C-to-A/G or indel, HuH-7 cells, BC27 + UGI overexpression + siRNA against UNG (fold change relative to GFP) is -10.8. Further, the Fold change relative to GFP in % of edited reads, C-to-A/G or indel, U-2OS cells, BC22 + UGI overexpression (fold change relative to GFP) was -2.97; the Fold change relative to GFP in % of edited reads, C-to-A/G or indel, U-2OS cells, BC22 + UGI overexpression + siRNA against UNG (fold change relative to GFP) was -3.46; the Fold change relative to GFP in % of edited reads, C-to-A/G or indel, U-2OS cells, BC27 + UGI overexpression (fold change relative to GFP) is -3.09; the Fold change relative to GFP in % of edited reads, C-to-A/G or indel, U-2OS cells, BC27 + UGI overexpression + siRNA against UNG (fold change relative to GFP) was -3.48. In addition, the Fold change relative to GFP in % of edited reads, C-to-T, HuH-7 cells, BC22 + UGI overexpression (fold change relative to GFP) was 1.56; the Fold change relative to GFP in % of edited reads, C-to-T, HuH-7 cells, BC22 + UGI overexpression + siRNA against UNG (fold change relative to GFP) was determined as 1.57; the Fold change relative to GFP in % of edited reads, C-to-T, HuH-7 cells, BC27 + UGI overexpression (fold change relative to GFP) turned out to be 2.13; the Fold change relative to GFP in % of edited reads, C-to-T, HuH-7 cells, BC27 + UGI overexpression + siRNA against UNG (fold change relative to GFP) worked out at 2.15. Besides, the Fold change relative to GFP in % of edited reads, C-to-T, U-2OS cells, BC22 + UGI overexpression (fold change relative to GFP) amounted to 1.21; the Fold change relative to GFP in % of edited reads, C-to-T, U-2OS cells, BC22 + UGI overexpression + siRNA against UNG (fold change relative to GFP) was 1.22; the Fold change relative to GFP in % of edited reads, C-to-T, U-2OS cells, BC27 + UGI overexpression (fold change relative to GFP) worked out at 1.92; the Fold change relative to GFP in % of edited reads, C-to-T, U-2OS cells, BC27 + UGI overexpression + siRNA against UNG (fold change relative to GFP) was 1.97. Besides, the Share of total edits that are C-to-T-only edits, HuH-7 cells, BC22 or BC27 + UGI overexpression worked out at 94%.
